Experimental data from patent US6395479B1, “Androgen-metabolic gene mutations and prostate cancer risk” (University of Southern California, priority 1998, dated 2002).
Where a chain is given by its changes, count along the chain named. Names may count otherwise.

B1: normal enzyme: normal (wild type) steroid 5α-reductase type II from the SRD5A2 construct expressed in cos cells (protein, UniProt P31213 1-254, looked up)
3-oxo-5-alpha-steroid …: MQVQCQQSPVLAGSATLVALGALALYVAKPSGYGKHTESLKPAATRLPARAAWFLQELPSFAVPAGILARQPLSLFGPPGTVLLGLFCLHYFHRTFVYSLLNRGRPYPAILILRGTAFCTGNGVLQGYYLIYCAEYPDGWYTDIRFSLGVFLFILGMGINIHSDYILRQLRKPGEISYRIPQGGLFTYVSGANFLGEIIEWIGYALATWSLPALAFAFFSLCFLGLRAFHHHRFYLKMFEDYPKSRKALIPFIF
B2: A49T enzyme: steroid 5α-reductase type II encoded by SRD5A2 cDNA with the A49T missense mutation, expressed in cos cells (protein, UniProt P31213 1-254, looked up, variant A49T)
3-oxo-5-alpha-steroid …: B1 3-oxo-5-alpha-steroid … with A49T

Columns and labels:
[1] = system: SRD5A2 (steroid 5α-reductase type II); test: SRD5A2 activity in extracts of transfected cos cells: conversion of [14C] testosterone to [14C] dihydrotestosterone with NADPH; assay type: biochemical, human; settings: for Vmax for testosterone to dihydrotestosterone conversion: normalized protein extracts of transfected cos cells, 37° C., cofactor NADPH
[2] = biological target: T1, SRD5A2 (steroid 5α-reductase type II) (Homo sapiens, UniProt P31213, A49T/L89V); test: as above; assay type: biochemical; settings: substrate testosterone
T1 construct: expressed in transfected cells; host or cells: cos cells (electroporated; sonicated cell extracts)
T1 sequence (P31213 1-254 A49T/L89V): B1 3-oxo-5-alpha-steroid … with A49T, L89V

| Molecule | Vmax for testosterone to dihydrotestosterone conversion [1] [nmol/min/mg] | testosterone concentration at which the enzyme is substrate inhibited [1] [µM] | apparent KM for testosterone compared to the normal enzyme [2] |
| --- | --- | --- | --- |
| B1 | 1.3 | 1.5 |  |
| B2 | 3.8 | 6 | higher KM for testosterone |
